The source of these data is paper doi:10.1101/382838.

For this test, the target named is C. elegans PGL-3 N-terminal dimerization domain (NtDD), wild type (C. elegans). The experiment in a line: SEC-MALS. For orientation: In gel filtration, larger molecules generally elute earlier.

In the case of “C. elegans PGL-3 N-terminal dimerization domain (NtDD), wild type (domain or fragment)”, the stoichiometry N (in general, the number of molecules, sites or subunits per partner or assembly) was found to be 2.
